Laboratory results from patent publication US12458618B2, “Compounds and methods for the detection of TRPV-6 cancers and drug delivery” (Soricimed Biopharma Inc., priority 2009, dated 2025).
Where no end group is shown, it is not given here. Cy5.5 maleimide = Cy5.5 label attached to cysteine thiol by maleimide-activated reaction

Key:
TRPV6 [1] = target: T1, TRPV6 (Homo sapiens, UniProt Q9H1D0); assay: Equilibrium dissociation constant (Kd) in an LNCaP model; assay type: binding; parameters: endogenous in cells; host or cells: LNCaP
T1 sequence (Q9H1D0 1-765): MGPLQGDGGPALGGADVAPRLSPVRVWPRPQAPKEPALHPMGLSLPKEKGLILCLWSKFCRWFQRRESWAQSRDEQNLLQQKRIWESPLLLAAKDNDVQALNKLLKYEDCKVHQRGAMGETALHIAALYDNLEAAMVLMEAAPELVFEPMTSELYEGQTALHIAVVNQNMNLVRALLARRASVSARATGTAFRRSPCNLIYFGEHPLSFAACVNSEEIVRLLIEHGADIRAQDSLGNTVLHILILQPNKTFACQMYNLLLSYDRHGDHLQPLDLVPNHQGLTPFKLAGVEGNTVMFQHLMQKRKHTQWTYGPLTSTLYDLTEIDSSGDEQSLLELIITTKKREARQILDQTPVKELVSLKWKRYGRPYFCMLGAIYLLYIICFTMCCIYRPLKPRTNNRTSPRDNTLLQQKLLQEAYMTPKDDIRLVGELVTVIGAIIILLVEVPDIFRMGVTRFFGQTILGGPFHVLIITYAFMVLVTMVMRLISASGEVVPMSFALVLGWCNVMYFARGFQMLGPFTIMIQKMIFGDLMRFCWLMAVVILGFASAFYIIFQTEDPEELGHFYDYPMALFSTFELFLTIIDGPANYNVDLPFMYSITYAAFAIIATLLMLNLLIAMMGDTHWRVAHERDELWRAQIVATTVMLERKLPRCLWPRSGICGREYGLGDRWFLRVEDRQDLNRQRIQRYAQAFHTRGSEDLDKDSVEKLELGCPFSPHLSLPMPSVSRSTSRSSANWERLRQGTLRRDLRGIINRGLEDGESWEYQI
From the text: As noted above, a TRPV6-binding peptide of the invention will have calcium channel binding activity. The peptides having such activity are readily identified with any known assays suitable for measuring binding of the peptides with TRPV6. For example, in one embodiment, a peptide having calcium channel inhibition activity is optionally identified by determining that the peptide reduces calcium channel activity by reducing (i.e., partially or fully inhibiting) the flow of calcium through calcium channels. TRPV6-binding activity can also be measured using methods such as: internalized calcifluors (such as FURA-2 am); whole cell patch clamping to measure inhibition calcium currents electrophysiologically; equilibrium binding assays using peptides labeled with detectable tags such as radioactive or fluorescent tags; and/or NMR determination of ‘bound’ and ‘unbound’ peptides. In some embodiments, the TRPV6-binding peptides also have i) calcium channel blocking and ii) lack of paralytic activity.
Calcium channel binding activity is optionally identified by using a readily available cell line (e.g. human embryonic kidney cell lines-HEK293) transfected with an expression vector for TRPV6. Such transfected cells are readily aliquoted and stored (typically −80° C.) until required. […]

TRPV6 [2] = target: T1, TRPV6; assay: Co-localization of SorC27-cy5.5 and fluorescently labeled TRPV6 antibodies in cancer cell lines; assay type: cell-based; parameters: endogenous in cells; host or cells: PC-3, T 47D, SKOV-3
From the text: The level of TRPV6 immunofluorescence and SorC27-cy5.5 fluorescence are both increased in the transfected cells with increased TRPV6 expression shown in the B1-B3 series of FIG. 7 compared to the cells in the A1-A3 series of FIG. 7.
The level of TRPV6 immunofluorescence and SorC27-cy5.5 fluorescence are both increased in the transfected cells with greater TRPV6 expression shown in the B1-B3 series of FIG. 8 compared to the cells in the A1-A3 series of FIG. 8.
The level of TRPV6 immunofluorescence and SorC27-cy5.5 fluorescence are both increased the transfected cells with greater TRPV6 expression shown in the B1-B3 series of FIG. 9 compared to the cells in A1-A3 series of FIG. 9.

TRPV6 [3] = target: T1, TRPV6; assay: Fluorescently tagged peptide on staged tumor tissue micro-arrays (Example 7); parameters: from tissue; host or cells: ovarian cancer tumour sections on tissue micro-arrays; settings: Stage I to Stage IV tissue micro-arrays
Procedure: Fluorescently tagged TRPV6-binding peptides are useful to determine the stage of a tumor by direct incubation of Tissue Micro-Arrays (TMA) with the peptide reagent. SorC27-cy5.5 compound is incubated with cells from a subject and fluorescence levels are compared to levels from control staged tumor samples.

[4] = test system: ovarian TRPV6-rich tumor (SKOV-3 cells); assay: SorC27-cy5.5 in mice xenografted with SKOV-3 tumor (Example 9); assay type: in vivo; settings: SKOV-3 xenograft
Procedure: Mice xenografted with an ovarian TRPV6-rich tumor (SKOV-3 cells) are injected with the fluorescently-labeled TRPV6-binding peptide SorC27-cy5.5.

[5] = Tissue distribution of Cy5.5-labeled peptides after i.v. injection, optical imaging; assay type: in vivo, CD1 mice
From the text: SorC13 and SorC27 were labeled with the near-infrared probe, Cy5.5. SorC13 was labeled at lysine-1 and lysine-8 with the infrared fluorescent probe cy5.5 through reaction with Cy5.5 NHS ester-activated process. SorC27 was labeled at the single cysteine thiol with Cy5.5 maleimide-activated reaction. The labeled peptides were purified with a combination of size exclusion chromatography and HPLC. The label, Cy5.5, fluoresces in the infra-red region after excitation with a scanning laser. The low energy laser is able to penetrate the animal to about 1 cm and, thus, by scanning prone and supine positions, the presence of the tagged peptides can be quantified in three dimensions.
Cy5.5-labeled peptides were intravenously injected into CD1 mice (4 for each compound) at 100 μg per animal in 100 μL, and animals were imaged live using an optical imaging system, Optix explorer (GE Healthcare Systems) at different time points (30 min, 90 min, 4 h). […] The bio-distribution of the labeled peptides in different organs and tissues were visualized and relatively quantified by optical imaging analysis. This protocol allows for visualization of the location of the labeled peptides and how the location changes over time. […] Nodes that accumulated the labeled peptides are indicated by line 1 (superfacial cervical nodes), line 4 (axillary nodes), line 5 (brachial nodes), line 8 (mesenteric nodes) and line 9 (inguinal nodes). FIGS. 2, 3 and 4 show the amounts of labeled peptides in various organs ex vivo.

[6] = test system: prostate (DU145 cells) tumors; assay: Localization of SorC27-cy5.5 to xenografted prostate tumors in vivo (optical imaging); parameters: species or system nude CD1 mice; settings: 100 μg intraperitoneally, DU145 prostate xenograft
Procedure: (§1) Mice xenografted with a TRPV6-rich ovarian (SKOV-3 cells) and prostate (DU145 cells) tumors were injected (intraperitoneally) with the fluorescently-labeled TRPV6-binding peptide SorC27-cy5.5. SorC27 was labeled with the near-infrared probe Cy5.5 at the single cysteine thiol using a Cy5.5 maleimide-activated reaction. The labeled peptides were purified with a combination of size exclusion chromatography and HPLC. Cy5.5, fluoresces in the infra-red region after excitation with a scanning laser. The low energy laser is able to penetrate the animal to about 1 cm and, thus, by scanning, the presence of the tagged peptides can be quantified in three dimensions. Cy5.5-labeled peptides were intraperitoneally injected into nude CD1 mice at 100 μg per animal, and animals were imaged live using an optical imaging system, Optix explorer (GE Healthcare Systems) at different time points (30 min, 90 min, 4 h).

TRPV6 [7] = target: T1, TRPV6; assay: Co-localization with TRPV6 antibody in HEK-293 cells transfected with a TRPV6 expression vector; assay type: cell-based
Procedure: HEK-293 cells were transfected with a TRPV6 expression vector and incubated with fluorescently labeled antibodies to the N-terminal peptides of TRPV6 as well as fluorescently labeled SorC27 (SorC27-cy5.5). HEK-293 cells that were not transfected with a TRPV6 expression vector were also incubated with fluorescently labeled anti-TRPV6 and SorC27-cy5.5 as a negative control (FIG. 6A).

[8] = test system: TRPV6-rich ovarian (SKOV-3 cells) tumors; assay: Localization of SorC27-cy5.5 to xenografted ovarian tumors in vivo (optical imaging); parameters: species or system nude CD1 mice; settings: 100 μg intraperitoneally, SKOV-3 ovarian xenograft
Procedure: as §1

Substance | Kd (TRPV6 [1]) [nM] | SorC27-cy5.5 fluorescence in TRPV6-transfected versus non-transfected cells (TRPV6 [2]; PC-3) | SorC27-cy5.5 fluorescence in TRPV6-transfected versus non-transfected cells (TRPV6 [2]; SKOV-3) | SorC27-cy5.5 fluorescence in TRPV6-transfected versus non-transfected cells (TRPV6 [2]; T 47D) | co-localization with TRPV6 antibody (TRPV6 [2]; breast cancer cell line T 47D) | co-localization with TRPV6 antibody (TRPV6 [2]; ovarian cancer cell line SKOV-3) | co-localization with TRPV6 antibody (TRPV6 [2]; prostate cancer cell line PC-3) | fluorescent signal with tumor stage (TRPV6 [3]) | detection of xenografted tumor by fluorescence [4] | predominant tissue localization ([5]; 100 μg i.v., CD1 mice, imaging up to 4 h) | detectability in tissues after perfusion ([5]; 24 hours, after perfusion to remove blood and lymph) | accumulation in lymph nodes (superfacial cervical, axillary, branchial, mesenteric, inguinal) ([5]; four hours after i.v. injection of 100 μg) | time tumor is clearly detected in vivo after injection [6] | fluorescence in non-transfected cells (negative control) (TRPV6 [7]; HEK293 cells not transfected with the TRPV6 expression vector) | binding to TRPV6 (co-localization with anti-TRPV6) (TRPV6 [7]; HEK-293 cells transfected with TRPV6 expression vector) | time tumor is clearly detected in vivo after injection [8]
HPSKVDLPR [SorC9, HPSKVDLPR] | ~90 |  |  |  |  |  |  |  |  |  |  |  |  |  |  | 
SorC27-cy5.5: SorC27 labeled at the single cysteine thiol with Cy5.5 maleimide-activated reaction (EGKLSSNDTEGGLC(Cy5.5 maleimide)KEFLHPSKVDLPR) |  | increased | increased | increased | co-localization of SorC27-cy5.5 and TRPV6 | co-localization of SorC27-cy5.5 and TRPV6 | co-localization of SorC27-cy5.5 and TRPV6 | increase in the intensity of the fluorescent signal | detected in vivo | localize predominantly in lymph nodes, lung, liver and kidney | still detectable in these tissues | Significant accumulation | at least 24 hours | no fluorescence | bound to TRPV6 | at least 24 hours
